Patent US20240010695A1 (ASHER BIOTHERAPEUTICS, published 2024)

Biological target: Wild type IL-10 dimer fused to xhCD8b (format E) (Homo sapiens (Human), UniProt P22301 19-178; P22301 19-178)
Assay: SPR 37 C; fusion captured via Fc, IL-10RA ECD analyte
Protocol: To determine the affinities with IL-10RA, antibody or fusion proteins were captured onto the CM4 sensor chip via their Fc by covalently anti-human Fc antibody (Southern Biotech, Catalog No. 2081-01). Protein was not captured on flow cell 1 to serve as a reference surface. In-house generated human IL-10RA ECD, diluted in HBS-P+ buffer supplemented with 1 g/L BSA, at concentrations of 8, 40, 200, 1000, and 5000 nM, or buffer was flowed over the surface-captured fusion protein for 2 minutes at 30 μL/min. Dissociation was monitored for 4-5 minutes, and the anti-hIgG-Fc surface was regenerated with three 30-seconds injections of 75 mM phosphoric acid between analysis cycles. Binding data were analyzed by Biacore® Evaluation Software version 3.2 using a 1:1 Langmuir with mass transport model or by steady-state affinity analysis.
As shown in Example 3, fusion proteins comprising CD8 antibodies and IL-10 monomer polypeptides selectively activated CD8+ T cells over monocytes and CD4+ T cells. […] Amino acid substitutions and the amino acid sequences of representative mutant monomer IL-10 polypeptides that were evaluated are shown in Table 4A. […] In all cases, the IL-10 polypeptide was expressed as a fusion protein, with the antibody binding domain specified in column 2, and the format shown in parentheses, based on the schematics depicted in FIG. 6.

Sequence of Wild type IL-10 dimer fused to xhCD8b (format E) (P22301 19-178 limits assumed, chain 1 of 2): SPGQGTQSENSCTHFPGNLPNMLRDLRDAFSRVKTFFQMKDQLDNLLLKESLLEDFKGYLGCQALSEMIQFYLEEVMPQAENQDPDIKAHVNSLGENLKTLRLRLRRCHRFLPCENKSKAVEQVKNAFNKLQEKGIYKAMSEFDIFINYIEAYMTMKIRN
Sequence of Wild type IL-10 dimer fused to xhCD8b (format E) (P22301 19-178 limits assumed, chain 2 of 2): as the sequence (P22301 19-178 limits assumed, chain 1 of 2) above

Kd: 4.5 nM
B1: human IL-10RA ECD (receptor)
chain: HGTELPSPPSVWFEAEFFHHILHWTPIPNQSESTCYEVALLRYGIESWNSISNCSQTLSYDLTAVTLDLYHSNGYRARVRAVDGSRHSNWTVTNTRFSVDEVTLTVGSVNLEIHNGFILGKIQLPRPKMAPANDTYESIFSHFREYEIAIRKVPGNFTFTHKKVKHENFSLLTSGEVGEFCVQVKPSVASRSNKGMWSKEECISLTRQYFTVTN
notes: In-house generated ECD; A biotinylated form held the fusions on the chip in the IL-10RB assay
